Test results as given in patent publication US20240294613A1 (BROAD INSTITUTE, published 2024).

B1: BG7-15 (antibody, V domains shown)
VH: QVQLVQSGAEVKKPGASVKVSCKASGYTFTSYAISWVRQAPGQGLEWMGWVSAYNGNTNYAQKLQGRVTMTTDTSTNTAYMELRSLRSDDTAIYYCAIPYSSVTFDCWGQGTLVTVSS
VL: EIVLTQSPGTLSLSPGERATLSCRASQSVSGTFLAWYQQKPGQAPRLLISGASSRATGIPDRFSGSGSGTDFTLTISRLEPEDFAVYYCQQYGSSRPTFGQGTKLEIKR
B2: BG1-15 dimeric IgA (antibody, V domains shown)
VH: DVQLVESGGVVVQPGGSLRLACAASGFTFDDYAMHWVRQAPGKGLEWVSLITRDGGSTHYADSVKGRFTISRDNSKNSLYLQMNSLRLEDTAFYYCAKDGRRDGYNHALDNWGQGTLVTVSS
VL: DIQMTQSPSTLSASVGDRVTITCRASQSISSWLAWYQQKPGKAPKLLINRASSLESGVPSRFSGSGSGTEFTLTISSLQPDDFATYYCQQYSSYPTFGQGTKVEIKR
B3: BG10-8 dimeric IgA (antibody, V domains shown)
VH: QMELVESGGGLVKPGGSLRLSCASSGFSLGDYYMTWIRQAPGKGLEWVSYISRSDGKTFYADSVKGRFTLSTDDGKKSLYLQMNSLRAEDTAVYYCVRGEGGPHDAFDIWGQGTMVTVSS
VL: TSYVLTQPPSVSVAPGQTARISCGGNNIESKTVHWYQQKPGQAPILVVYDDNDRPSGIPERFSGSNSGNTATLSISRAEAGDEADYYCQVWDSSRDLRVFGGGTKLSVLG
B4: BG7-18 (antibody, V domains shown)
VH: EVQLMESGGGLIQPGGSLRLSCAASGFIVSSNYMSWVRQAPGKGLEWVSVIYSGGGTDYADSVKGRFTISRDNSKNTLFLQMNSLRAEDTAVYYCARGAAMVKELFDYWGQGTQVTVSS
VL: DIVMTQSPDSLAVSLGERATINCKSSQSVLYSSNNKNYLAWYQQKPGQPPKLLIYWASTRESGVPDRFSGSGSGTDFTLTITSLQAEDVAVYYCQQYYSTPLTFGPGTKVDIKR

Legend:
[1] = biological target: SARS-COV-2 full-length S (containing G at position 614) (SARS-COV-2, UniProt P0DTC2 14-1273); assay: cell-based or functional assay
[2] = biological target: SARS-COV-2 full-length S (containing G at position 614) (SARS-COV-2, UniProt P0DTC2 14-1273); assay: cell-based or functional assay; remark: listed apart in the source

Binder | PV IC50 [1] [µg/mL] | IC50, SARS-COV-2 pseudovirus neutralization [2] [µg/mL] | molar neutralization ratio (MNR) [2]
B1 | 0.016 |  | 
B2 |  | 6.5 | 
B3 |  | 0.026 | 10.9
B4 | 0.083 |  | 
